Where no end group is shown, it is not given here.
B1: QLD^RhVTR metallopeptide (peptide)
peptide: Ac-QLD(dirhodium)VTR
modifications: also: dirhodium metal complex at Asp side-chain carboxylate
B2: E^RhVQSTRL metallopeptide (peptide)
peptide: Ac-E(dirhodium)VQSTRL-OH
modifications: also: dirhodium metal complex at Glu side-chain carboxylate
B3: EVQSTRL (peptide)
peptide: Ac-EVQSTRL-OH
B4: VQDTRL (peptide)
peptide: Ac-VQDTRL-OH
B5: VQD^RhTRL metallopeptide (peptide)
peptide: Ac-VQD(dirhodium)TRL-OH
modifications: also: dirhodium metal complex at Asp side-chain carboxylate
B6: E(Rh)VQSTRL (peptide)
peptide: Ac-E(dirhodium)VQSTRL-OH
modifications: also: dirhodium metal complex at Glu side-chain carboxylate
B7: E(Rh)WPTSII (peptide)
peptide: Ac-E(dirhodium)WPTSII-OH
modifications: also: dirhodium metal complex at Glu side chain
B8: E^RhWPTSII metallopeptide (peptide)
peptide: Ac-E(dirhodium)WPTSII-OH
modifications: also: dirhodium metal complex at Glu side chain
B9: EWPTSII (peptide)
peptide: Ac-EWPTSII-OH
B10: QLDVTR peptide (scrambled control sequence) (peptide)
peptide: Ac-QLDVTR

How the values were obtained:
[1] = molecular target: T1, CAL PDZ domain (CALP), wild type (UniProt Q9HD26 278-362); experiment: fluorescence anisotropy displacement; Fig 9A; upper bound, nonspecific Rh inhibition
[2] = molecular target: CALP-H301A mutant (UniProt Q9HD26 278-362); experiment: fluorescence anisotropy displacement; Fig 9B
[3] = molecular target: T1, CAL PDZ domain (CALP), wild type; experiment: fluorescence anisotropy displacement; Fig 9B
[4] = molecular target: N1P1; experiment: fluorescence anisotropy displacement; Fig 9B
[5] = molecular target: T1, CAL PDZ domain (CALP), wild type; experiment: fluorescence anisotropy displacement; Fig 9A

| Binder | Ki [3] [nM] | Ki [4] [nM] | other results |
| --- | --- | --- | --- |
| B1 | – | – | Ki [1]: 10000 nM |
| B2 | 430 | – | Ki [2]: 11300 nM |
| B3 | – | 710 | – |
| B4 | – | 700 | – |
| B5 | ~49000 | – | – |
| B6 | – | 32 | – |
| B7 | – | > 50000 | – |
| B8 | 1300 | – | – |
| B9 | – | > 500000 | – |
| B10 | – | – | Ki [5]: > 500000 nM |
